One assay addresses histidine-tagged PD-1 (UniProt Q15116 25-167). Briefly: Octet.
For another assay, the target named is 21480B. Briefly: Octet. In general terms: Biolayer interferometry detects binding as a change in optical thickness at a sensor tip.

histidine-tagged PD-1, sequence (Q15116 25-167): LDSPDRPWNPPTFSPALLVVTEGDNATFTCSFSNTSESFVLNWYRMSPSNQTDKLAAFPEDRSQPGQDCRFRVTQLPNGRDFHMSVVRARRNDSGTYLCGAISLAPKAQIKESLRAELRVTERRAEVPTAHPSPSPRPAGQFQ

B1: XENP22553, humanized variant 1C11[PD-1]_H3L3 of anti-PD-1 clone 1C11 (antibody, V domains shown)
VH: QIQLVQSGSELKKPGASVKVSCKASGYTFTHYGMNWVRQAPGQGLEWMGWINTYTGEPTYADGFTGRFVFSLDTSVSTAYLQISSLKAEDTAVYFCARDYYGSSPYWGQGTLVTVSS
VL: DVLMTQSPDSLAVSLGERATINCKSSQSIVHSNGNTYLEWYQQKPGQSPKLLIYKVSNRFSGVPDRFSGSGSGTDFTLTISSLQAEDVAVYYCFQGSHVPNTFGGGTKVEIKR
Broadly, the Kd is the equilibrium constant for the complex coming apart. Higher therefore signals weaker binding. For B1, in the assay with histidine-tagged PD-1, the Kd amounted to 19.1 nM.

B2: IL2Rbeta (receptor)
chain: AVNGTSQFTCFYNSRANISCVWSQDGALQDTSCQVHAWPDRRRWNQTCELLPVSQASWACNLILGAPDSQKLTTVDIVTLRVLCREGVRWRVMAIQDFKPFENLRLMAPISLQVVHVETHRCNISWEISQASHYFERHLEFEARTLSPGHTWEEAPLLTLKQKQEWICLETLTPDTQYEFQVRVKPLQGEFTTWSPWSQPLAFRTKPAALGKD
For B2, binding in the assay with 21480B was characterised by a dissociation constant (Kd) of 8.1 nM.

The values above are taken from US20190389933A1 (published 2019).
